Earlier results on 3 molecules are cited in PMC4245983 (Biochemistry, 2014).

“Also recorded” adds a separate entry of the source.

One series relates to Hsc70 NBD. The conditions noted are these: NBD with interdomain linker; ref 32 (b59 prints ref 23).
The subject of series [1] is HscA. The settings on record: 25 °C; background statement, no reference given.
Series [2] deals with HscA. The settings on record: read-out: Km of WT HscA (ATP).
Another series concerns the target WT HscA. The settings on record: read-out: Kd^ATP of WT HscA.
Series [3] deals with HscA. The conditions noted are these: compared to DnaK.
Series [4] relates to [2Fe-2S] cluster transfer.

B1: auxilin: J-protein of Hsc70 (protein, UniProt Q27974 1-910, looked up)
Auxilin: MDSSGASSPDMEPSYGGGLFDMVKGGAGRLFSNLKDNLKDTLKDTSSRVIQSVTSYTKGDLDFTYVTSRIIVMSFPLDSVDIGFRNQVDDIRSFLDSRHLDHYTVYNLSPKSYRTAKFHSRVSECSWPIRQAPSLHNLFAVCRNMYNWLLQNPKNVCVVHCLDGRAASSILVGAMFIFCNLYSTPGPAVRLLYAKRPGIGLSPSHRRYLGYMCDLLADKPYRPHFKPLTIKSITVSPVPFFNKQRNGCRPYCDVLIGETKIYTTCADFERMKEYRVQDGKIFIPLSITVQGDVVVSMYHLRSTIGSRLQAKVTNTQIFQLQFHTGFIPLDTTVLKFTKPELDACDVPEKYPQLFQVTLDVELQPHDKVMELTPPWEHYCTKDVNPSILFSSHQEHQDTLVLGGQAPIDIPPDNPRHFGQGGFFSTLCWQDQKSEKSFCEEDHAALVNQESEQSDDELLTLSSPHGNANGDKPHAARKPSKKQQEPAAPAPPEDVDLLGLEGSAVSKNFSSPAAPPSNSELLSDLFGGGGAAGPVQSGQSGVDDVFHPSGPTSTQSTPRRSATSTSASPTLRVGEGATFDPFGAPSKPSGQDLLGSFLNTASASSDPFLQPTRSPSPTVHASSTPAVNIQPDVSGAWDWHTKPGGFGMGSKSAATSPTGSSHGTPTHQNKPQTLDPFADLGTLGGSSFASKPSTPTGLGGGFPPLSSPQKASPQPMGGGWQQGGGYNWQQTQSKPQSSMPHSSPQNRPNYNVSFSSMPGGQNERGKAAANLEGKQKAADFEDLLSGQGFNAHKDKKGPRTIAEMRKEEMAKEMDPEKLKILEWIEGKERNIRALLSTMHTVLWAGETKWKPVGMADLVTPEQVKKVYRKAVLVVHPDKATGQPYEQYAKMIFMELNDAWSEFENQGQKPLY
In the case of B1, the “effect on ATPase activity of Hsc70 NBD variants” value with Hsc70 NBD was “stimulated by its J-protein (auxilin) if and only if the interdomain linker was present; also recorded: could be stimulated by its J-protein, auxilin”.

B2: WT HscA: specialized Hsp70-type chaperone (66 kDa) of E. coli (protein, UniProt P0A6Z1 1-616, looked up)
chain: MALLQISEPGLSAAPHQRRLAAGIDLGTTNSLVATVRSGQAETLADHEGRHLLPSVVHYQQQGHSVGYDARTNAALDTANTISSVKRLMGRSLADIQQRYPHLPYQFQASENGLPMIETAAGLLNPVRVSADILKALAARATEALAGELDGVVITVPAYFDDAQRQGTKDAARLAGLHVLRLLNEPTAAAIAYGLDSGQEGVIAVYDLGGGTFDISILRLSRGVFEVLATGGDSALGGDDFDHLLADYIREQAGIPDRSDNRVQRELLDAAIAAKIALSDADSVTVNVAGWQGEISREQFNELIAPLVKRTLLACRRALKDAGVEADEVLEVVMVGGSTRVPLVRERVGEFFGRPPLTSIDPDKVVAIGAAIQADILVGNKPDSEMLLLDVIPLSLGLETMGGLVEKVIPRNTTIPVARAQDFTTFKDGQTAMSIHVMQGERELVQDCRSLARFALRGIPALPAGGAHIRVTFQVDADGLLSVTAMEKSTGVEASIQVKPSYGLTDSEIASMIKDSMSYAEQDVKARMLAEQKVEAARVLESLHGALAADAALLSAAERQVIDDAAAHLSEVAQGDDVDAIEQAIKNVDKQTQDFAARRMDQSVRRALKGHSVDEV
modifications: full-length
As to B2, the “intrinsic ATPase activity” value in the series on HscA [1] is on record as 0.02 min^–1. In addition, in the series with HscA [2], the Km was 12.6 µM. On WT HscA, the dissociation constant Kd is 26 ± 7 µM. Besides, the “preferential binding to conformational state of IscU” value with IscU is “binds preferentially to the D-state”. Besides, in the series with HscA [3], the “binding affinity for ATP, fold weaker than DnaK” value was 10^3 fold and the “rate of ADP dissociation, fold higher than DnaK” value is listed as > 10^3 fold.

B3: HscA T212V (protein, UniProt P0A6Z1 1-616, looked up, variant T212V)
Chaperone protein HscA: MALLQISEPGLSAAPHQRRLAAGIDLGTTNSLVATVRSGQAETLADHEGRHLLPSVVHYQQQGHSVGYDARTNAALDTANTISSVKRLMGRSLADIQQRYPHLPYQFQASENGLPMIETAAGLLNPVRVSADILKALAARATEALAGELDGVVITVPAYFDDAQRQGTKDAARLAGLHVLRLLNEPTAAAIAYGLDSGQEGVIAVYDLGGGVFDISILRLSRGVFEVLATGGDSALGGDDFDHLLADYIREQAGIPDRSDNRVQRELLDAAIAAKIALSDADSVTVNVAGWQGEISREQFNELIAPLVKRTLLACRRALKDAGVEADEVLEVVMVGGSTRVPLVRERVGEFFGRPPLTSIDPDKVVAIGAAIQADILVGNKPDSEMLLLDVIPLSLGLETMGGLVEKVIPRNTTIPVARAQDFTTFKDGQTAMSIHVMQGERELVQDCRSLARFALRGIPALPAGGAHIRVTFQVDADGLLSVTAMEKSTGVEASIQVKPSYGLTDSEIASMIKDSMSYAEQDVKARMLAEQKVEAARVLESLHGALAADAALLSAAERQVIDDAAAHLSEVAQGDDVDAIEQAIKNVDKQTQDFAARRMDQSVRRALKGHSVDEV
Take B3: in series [4], the “effect of ATPase deficient mutant on [2Fe-2S] cluster transfer” value is “abolishes [2Fe-2S] cluster transfer”.

What is called Km is the substrate concentration at which the rate is half of its maximum. As usually defined, the Kd is the equilibrium constant for the complex coming apart.
